Data: PMC4493562, “Mechanistic studies of a novel C-S lyase in ergothioneine biosynthesis: the involvement of a sulfenic acid intermediate” (Scientific Reports, 2015)

What was measured:
purified protein [1] = substrate: C[N+](C)(C)[C@@H](Cc1cnc([S+]([O-])C[C@H](N)C(=O)O)[nH]1)C(=O)[O-]; experiment: purified protein; format: biochemical, Mycolicibacterium smegmatis; details: 50 mM KPi pH 8.0, 1.0 mM DTT, 10 nM EgtE, 0.13 mM NADH, LDH
purified protein [2] = substrate: C[N+](C)(C)[C@@H](Cc1cnc(SC[C@H](N)C(=O)O)[nH]1)C(=O)[O-]; experiment: purified protein; format: biochemical, Mycolicibacterium smegmatis; details: 50 mM KPi pH 8.0, 1.0 mM DTT, 10 nM EgtE, 0.13 mM NADH, LDH

B1: EgtE (Mycolicibacterium smegmatis MC2 155) (protein)
chain: MMLAQQWRDARPKVAGLHLDSGACSRQSFAVIDATTAHARHEAEVGGYVAAEAATPALDAGRAAVASLIGFAASDVVYTSGSNHAIDLLLSSWPGKRTLACLPGEYGPNLSAMAANGFQVRALPVDDDGRVLVDEASHELSAHPVALVHLTALASHRGIAQPAAELVEACHNAGIPVVIDAAQALGHLDCNVGADAVYSSSRKWLAGPRGVGVLAVRPELAERLQPRIPPSDWPIPMSVLEKLELGEHNAAARVGFSVAVGEHLAAGPTAVRERLAEVGRLSRQVLAEVDGWRVVEPVDQPTAITTLESTDGADPASVRSWLIAERGIVTTACELARAPFEMRTPVLRISPHVDVTVDELEQFAAALREAP
notes: cloning details in supplement
Km (purified protein [1]): 121.2 ± 6.6 µM
kcat (purified protein [1]): 25.27 ± 0.45 s⁻¹
Km (purified protein [2]): 1960 ± 250 µM
kcat (purified protein [2]): 7.93 ± 0.05 s⁻¹
